Reference: patent publication US20190142971A1, “FORMULATION AND DELIVERY OF MODIFIED NUCLEOSIDE, NUCLEOTIDE, AND NUCLEIC ACID COMPOSITIONS” (ModernaTX, Inc., priority 2013, published 2019)
Like-named read-outs stand apart in the source and are kept apart here.

What was measured:
[1] = tested on: peripheral blood mononuclear cells (PBMC); assay: Example 46A: percent modification, PBMC G-CSF ELISA (Table 73); format: cell-based, human
Description: (§1) 960 ng of G-CSF mRNA modified with 5-methylcytosine (5mC) and pseudouridine (pseudoU) or unmodified G-CSF mRNA was transfected with 0.8 uL of Lipofectamine 2000 into peripheral blood mononuclear cells (PBMC) from three normal blood donors (D1, D2, D3). […] The supernatant was harvested and run by ELISA 22 hours after transfection to determine the protein expression. The expression of IFN-alpha and TNF-alpha may be a secondary effect from the transfection of the G-CSF mRNA.

mice [2] = assay: Example 39: Factor IX mmRNA IM in mice, serum Factor IX at 13 hours; format: in vivo; details: 2×100 ug/mouse IM
Description: Human Factor IX mmRNA (Gen1; fully modified 5-methycytosine and pseudouridine) formulated in formulation buffer was delivered to mice via intramuscular injection.
The mice were bled at 13 hours after the intramuscular injection to determine the concentration of human the polypeptide in serum in pg/mL.

human PBMC = assay: Example 45: PBMC transfection, IFN-alpha ELISA (Table 72); format: cell-based
Description: The plates were then incubated at 37 C.
Each condition was done in duplicate.
Shown in Tables 71 and 72 are the average from 2 separate PBMC donors of the G-CSF and IFN-alpha production over time as measured by specific ELISA.

C57/BL6 mice = assay: Example 32B: human G-CSF lipoplex IM, SC, IV in mice, serum G-CSF ELISA at 6 hours (Table 56); format: in vivo; details: serum 6 hours after administration
Description: 6 hours after administration of a formulation, serum was collected from each mouse to measure the amount of human G-CSF protein in the mouse serum by human G-CSF ELISA and the results are shown in Table 56.

HEK293 cells = assay: Example 46B: percent modification, HEK293 G-CSF ELISA (Table 75); format: cell-based, Human
BJ fibroblasts = details: for IFN-beta / IL-6: 250 ng transfected daily for 5 days
[3] = tested on: peripheral blood mononuclear cells (PBMC); format: cell-based, human; details: three human PBMC donors
Description: 500 ng of G-CSF mRNA modified with 5-methylcytosine (5mC) and pseudouridine (pseudoU) or unmodified G-CSF mRNA was transfected with 0.4 uL of Lipofectamine 2000 into peripheral blood mononuclear cells (PBMC) from three normal blood donors (D1, D2, and D3). […] The supernatant was harvested 6 hours and 18 hours after transfection and run by ELISA to determine the protein expression. The expression of G-CSF, IFN-alpha, and TNF-alpha for Donor 1 is shown in Table 88, Donor 2 is shown in Table 89 and Donor 3 is shown in Table 90.

mice [4] = assay: Example 40: multi-site IM/SC G-CSF mRNA in mice, neutrophil count (Table 65); format: in vivo; details: intramuscular, day 3
Description: Injection of four doses or 2×50 ug (two sites) daily for three days (24 hrs interval) was performed. The fourth dose was administered 6 hrs before blood collection and CBC analysis. […] The mice were bled at 72 hours after the first mRNA injection (6 hours after the last mRNA dose) to determine the effect of mRNA-encoded human G-CSF on the neutrophil count. The dosing regimen is shown in Table 65 as are the resulting neutrophil counts (thousands/uL). In Table 65, an asterisks (*) indicate statistical significance at p<0.05.

[5] = tested on: peripheral blood mononuclear cells (PBMC); assay: Example 56: PBMC IFN-alpha and TNF-alpha ELISA and protein/cytokine ratio (Tables 86, 87); format: cell-based, human
Description: as §1, with “480” for “960”, “0.4” for “0.8”, “D2, and” for “D2,”
As mentioned above, using PBMC as an in vitro assay system it is possible to establish a correlation between translation (in this case G-CSF protein production) and cytokine production (in this case exemplified by IFN-alpha protein production). Better protein production is correlated with lower induction of innate immune activation pathway, and the percentage modification of a chemistry can be judged favorably based on this ratio (Table 87).

mice [6] = assay: Example 19A: LNP IV in mice, serum EPO/G-CSF ELISA (Table 36); format: in vivo
Description: Formulations, listed in Table 33, were characterized by particle size, zeta potential, and encapsulation.
LNP formulations, shown in Table 33 (above), were administered to mice (n=4) intravenously (IV) at a single modified mRNA dose 0.05 mg/kg or 0.005 mg/kg. There was also 3 control groups of mice (n=4) that were untreated. The mice were bled at 2 hours, 8 hours, 24 hours, 48 hours and 72 hours after they were administered with G-CSF or EPO modified mRNA formulations to determine the protein expression. Protein expression of G-CSF and EPO were determined using ELISA.

C57BL/6 = assay: Example 115 (second): human EPO mRNA in mannitol multi-dose, serum EPO (Table 187); format: in vivo, mice; details: IM 2.5 mg/kg per dose
Description: Serum was collected from the mice 24 hours post the second, fourth, sixth and eighth doses.

Luciferase: luciferase mRNA, SEQ ID NO: 14, Cap1, fully modified with 5-methylcytosine and pseudouridine
G-CSF Expression ([1]; PBMC donor D1, 960 ng mRNA): 14.5 pg/mL
G-CSF Expression ([1]; PBMC donor D2, 960 ng mRNA): 3.1 pg/mL
G-CSF Expression ([1]; PBMC donor D3, 960 ng mRNA): 10.0 pg/mL
Factor IX in serum (mice [2]): less than 100 pg/mL

B1: G-CSF: modified mRNA encoding human G-CSF, SEQ ID NO: 4, Cap1, fully modified with 5-methylcytosine and pseudouridine; LNP-formulated in Examples 16-22 (nucleic acid)
chain: GGGAAAUAAGAGAGAAAAGAAGAGUAAGAAGAAAUAUAAGAGCCACCAUGGCCGGUCCCGCGACCCAAAGCCCCAUGAAACUUAUGGCCCUGCAGUUGCUGCUUUGGCACUCGGCCCUCUGGACAGUCCAAGAAGCGACUCCUCUCGGACCUGCCUCAUCGUUGCCGCAGUCAUUCCUUUUGAAGUGUCUGGAGCAGGUGCGAAAGAUUCAGGGCGAUGGAGCCGCACUCCAAGAGAAGCUCUGCGCGACAUACAAACUUUGCCAUCCCGAGGAGCUCGUACUGCUCGGGCACAGCUUGGGGAUUCCCUGGGCUCCUCUCUCGUCCUGUCCGUCGCAGGCUUUGCAGUUGGCAGGGUGCCUUUCCCAGCUCCACUCCGGUUUGUUCUUGUAUCAGGGACUGCUGCAAGCCCUUGAGGGAAUCUCGCCAGAAUUGGGCCCGACGCUGGACACGUUGCAGCUCGACGUGGCGGAUUUCGCAACAACCAUCUGGCAGCAGAUGGAGGAACUGGGGAUGGCACCCGCGCUGCAGCCCACGCAGGGGGCAAUGCCGGCCUUUGCGUCCGCGUUUCAGCGCAGGGCGGGUGGAGUCCUCGUAGCGAGCCACCUUCAAUCAUUUUUGGAAGUCUCGUACCGGGUGCUGAGACAUCUUGCGCAGCCGUGAAGCGCUGCCUUCUGCGGGGCUUGCCUUCUGGCCAUGCCCUUCUUCUCUCCCUUGCACCUGUACCUCUUGGUCUUUGAAUAAAGCCUGAGUAGGAAG
modifications: Cap1, 5-methylcytosine, pseudouridine
IFN-alpha / cytokine production (human PBMC): induced IFN-alpha, TNF-alpha and IP10
Human G-CSF in Serum (C57/BL6 mice; I.M., 100 μg): 85.6 pg/mL
Human G-CSF in Serum (C57/BL6 mice; I.V., 100 μg (Luc-unsp 150 μg)): 31.0 pg/mL
Human G-CSF in Serum (C57/BL6 mice; S.C., 100 μg): 3.9 pg/mL
half-life of mRNA (HEK293 cells): 8 to 10 h
time to cytokine response (IFN-beta, IL-6) (BJ fibroblasts): 2 to 3 days
IFN-beta (BJ fibroblasts; 6 hours): 0 pg/mL
IL-6 (BJ fibroblasts; 6 hours): 3396 pg/mL
IFN-beta (BJ fibroblasts; Day 1): 38 pg/mL
IL-6 (BJ fibroblasts; Day 1): 3870 pg/mL
IFN-beta (BJ fibroblasts; Day 2): 1125 pg/mL
IL-6 (BJ fibroblasts; Day 2): 16341 pg/mL
IFN-beta (BJ fibroblasts; Day 3): 100 pg/mL
IL-6 (BJ fibroblasts; Day 3): 25983 pg/mL
IFN-beta (BJ fibroblasts; Day 4): 75 pg/mL
IL-6 (BJ fibroblasts; Day 4): 18922 pg/mL
IFN-beta (BJ fibroblasts; Day 5): 213 pg/mL
IL-6 (BJ fibroblasts; Day 5): 15928 pg/mL
protein translation and cytokine production [3]: most protein translation (G-CSF) and the least amount of cytokine
increase in neutrophil count above control (mice [4]): four fold increase
protein/cytokine ratio vs natural G-CSF mRNA ([5]; IFN-alpha): 100 fold
protein/cytokine ratio vs natural G-CSF mRNA ([5]; TNF-alpha): 27 fold
EPO / G-CSF Serum Concentration (mice [6]; 0.005 mg/kg, 2 hours): 3,447.8 pg/ml
EPO / G-CSF Serum Concentration (mice [6]; 0.005 mg/kg, 8 hours): 11,454.0 pg/ml
EPO / G-CSF Serum Concentration (mice [6]; 0.005 mg/kg, 24 hours): 4,960.2 pg/ml
EPO / G-CSF Serum Concentration (mice [6]; 0.005 mg/kg, 48 hours): 686.4 pg/mL
EPO / G-CSF Serum Concentration (mice [6]; 0.05 mg/kg, 2 hours): 20,951.4 pg/ml
EPO / G-CSF Serum Concentration (mice [6]; 0.05 mg/kg, 8 hours): 70,012.8 pg/ml
EPO / G-CSF Serum Concentration (mice [6]; 0.05 mg/kg, 24 hours): 19,356.2 pg/ml
EPO / G-CSF Serum Concentration (mice [6]; 0.05 mg/kg, 48 hours): 1,963.0 pg/ml
EPO / G-CSF Serum Concentration (mice [6]; 0.05 mg/kg, 72 hours): 47.3 pg/mL

B2: EPO: modified mRNA encoding human erythropoietin, SEQ ID NO: 7, Cap1, fully modified with 5-methylcytosine and pseudouridine; LNP NPA-060-1 in Examples 17-22 (nucleic acid)
chain: GGGAAAUAAGAGAGAAAAGAAGAGUAAGAAGAAAUAUAAGAGCCACCAUGGGAGUGCACGAGUGUCCCGCGUGGUUGUGGUUGCUGCUGUCGCUCUUGAGCCUCCCACUGGGACUGCCUGUGCUGGGGGCACCACCCAGAUUGAUCUGCGACUCACGGGUACUUGAGAGGUACCUUCUUGAAGCCAAAGAAGCCGAAAACAUCACAACCGGAUGCGCCGAGCACUGCUCCCUCAAUGAGAACAUUACUGUACCGGAUACAAAGGUCAAUUUCUAUGCAUGGAAGAGAAUGGAAGUAGGACAGCAGGCCGUCGAAGUGUGGCAGGGGCUCGCGCUUUUGUCGGAGGCGGUGUUGCGGGGUCAGGCCCUCCUCGUCAACUCAUCACAGCCGUGGGAGCCCCUCCAACUUCAUGUCGAUAAAGCGGUGUCGGGGCUCCGCAGCUUGACGACGUUGCUUCGGGCUCUGGGCGCACAAAAGGAGGCUAUUUCGCCGCCUGACGCGGCCUCCGCGGCACCCCUCCGAACGAUCACCGCGGACACGUUUAGGAAGCUUUUUAGAGUGUACAGCAAUUUCCUCCGCGGAAAGCUGAAAUUGUAUACUGGUGAAGCGUGUAGGACAGGGGAUCGCUGAUAAGCUGCCUUCUGCGGGGCUUGCCUUCUGGCCAUGCCCUUCUUCUCUCCCUUGCACCUGUACCUCUUGGUCUUUGAAUAAAGCCUGAGUAGGAAG
modifications: Cap1, 5-methylcytosine, pseudouridine
Eighth Dose EPO (C57BL/6; serum 24 hours post eighth dose): 7.9 pg/mL
Fourth Dose EPO (C57BL/6; serum 24 hours post fourth dose): 44.3 pg/mL
Second Dose EPO (C57BL/6; serum 24 hours post second dose): 43.5 pg/mL
Sixth Dose EPO (C57BL/6; serum 24 hours post sixth dose): 46.3 pg/mL
EPO / G-CSF Serum Concentration (mice [6]; 0.005 mg/kg, 2 hours): OSC
EPO / G-CSF Serum Concentration (mice [6]; 0.005 mg/kg, 8 hours): 1,632.8 pg/ml
EPO / G-CSF Serum Concentration (mice [6]; 0.005 mg/kg, 24 hours): 1,141.0 pg/ml
EPO / G-CSF Serum Concentration (mice [6]; 0.005 mg/kg, 48 hours): 137.4 pg/mL
EPO / G-CSF Serum Concentration (mice [6]; 0.005 mg/kg, 72 hours): 0 pg/mL
EPO / G-CSF Serum Concentration (mice [6]; 0.05 mg/kg, 2 hours): 10,027.3 pg/ml
EPO / G-CSF Serum Concentration (mice [6]; 0.05 mg/kg, 8 hours): 56,547.2 pg/ml
EPO / G-CSF Serum Concentration (mice [6]; 0.05 mg/kg, 24 hours): 25,027.3 pg/ml
EPO / G-CSF Serum Concentration (mice [6]; 0.05 mg/kg, 48 hours): 1,432.3 pg/ml
EPO / G-CSF Serum Concentration (mice [6]; 0.05 mg/kg, 72 hours): 82.2 pg/mL
